Fewer inactive variants are shown than the library holds.
B1: TPR 5TU (parent)
chain: GGAUCUUCUCGAUCUAACAAAAAAGACAAAUCUGCCACAAAGCUUGAGAGCAUCUUCGGAUGCAGAGGCGGCAGCCUUCGGUGGCGCGAUAGCGCCAACGUUCUCAACUAUGACACGCAAAACGCGUGCUCCGUUGAAUGGAGUUUAUCAUG

Variants of: B1
Experiment: polymerase ribozyme fitness, log enrichment relative to wild type (log ratio); higher = more active; in vitro selection for triplet polymerase activity
Procedure, shortened: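 In triplicate, a single round of in vitro selection was run on each mutant library, PCR-built and transcribed, covering one subunit of a heterodimeric triplet polymerase ribozyme. Frozen incubation at −7 °C followed annealing with a biotinylated primer, partner subunit and triplets, and extended constructs were then gel-excised, streptavidin-captured and taken through RT-PCR. Fitness is the logarithm of genotype enrichment over wild-type enrichment, from inverse-variance-weighted replicate averages of Illumina-sequenced inputs and outputs. […] only genotypes with ≥10 input reads and ≥1 read per output were kept.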

Variant	polymerase ribozyme fitness (log ratio)
GGAUCUUCUCGAUCUAUCAAAAAAGACAAAUCUGCCACAAAGCUUGAGAGCAUCAUCGGAUGCAGAGGCGGCAGCCUUCGGUGGCGCGAUAGCGCCAACGUUCUCAACUAUGACACGCAAAACGCGUGCUCCGUUGAAUGGAGUUUAUCAUG	-1.08
GGAUCUUCUCGAUCUAACAAAAAAGACAAAUCUGCCACAAAGCUUGAGAGCAUCUUCGGAUGCAGACGCGGCAGCCUUCGGUGGCGCCAUAGCGCCAACGUUCUCAACUAUGACAGGCAAAUCGCGUUCUCCGUUGAAUGGAGAUUAUCAUG	≤ -4.2
GGAUCUUCUCGAUCUAACAAAAAAGACAAAUCUGCCACAAAGCUUGAGAGCAUCUUCAGAUGCAGAGGCGGCAGCCUUCGGAGGCGCGUUAGCGCCAACGUUCUCAACUAUGACACGCGUAACGCUUGCUCCGUUGAAUGGAGUUUAUCAUG	-0.897
GGAUCUUCUCGAUCUAACAAAAAAGACAAAUCUGCCAGAAAGCUUGAGAGCAUGUUCGGAUGCAGAGGCGGCAGCGUUCGGUGGCGCGAUAGCGCCAACGUUCUCAUCUAUGACACGCAAAACGCGUGCUCCGUUGAAUGGAGUUGAUCAUG	≤ -4.2
GGAUCUUCUCGAUCUAACAAAAAAGACAAAUCUGCCACAAAGCUUGAGAGCAUCUUCGGAUGCAGAGGCGGCAGCCUUCGGUGGCGCGAUAGCGCCAACGUUCUCAACUAUGACACGCAAAACGCGUGCUCCGUUGAUUGCAGUUUAUCAUG	-3.88
GGAUCGUCUCGUUCUAACAAAUAAGACAAAUCUGCCACAAAGCUUGAGAGCAUCUUCGGAUGCUGAGGCGGCAGCCUUCGGUGGCGCCAUAGCGUCAACGUUCUCAACUAUGACACGCAAAACGCGUGCUCCGUUGAAUGGAGUUUAUCAUG	≤ -4.2
GGAUCUUCUCGAGCUAACAUAAAAGACAAAUCUGCCACAAAGCUUGAGAGCAUCUUAGGAUGCAGAGGCGGCAGCCUUCGGUGGCGCGAUAGCGAAAACGUUCUCAACUAUGACACGCAAAACGCGUGCCCCGUUGAAUGGAGUUUAUCAUG	≤ -4.2
GGAUCUUCUCGAUCUAACAAAAAAGACAAAUCUGCCACAAAGCGUGAGAGCCUCUUCGGAUGCAGAGGCGGCAGCCCUCGGUAGCGCGAUAGCGCCAAAGUUCUCAACUAUGACACGAAAAACGCGUGCUCCGUUGAAUGGAGUGUAUCAUG	≤ -4.2
GGCUCUUCUCGAUCUAACAAAAAAGACAAAUCUGCCACAAAGCUUGAGAGCAUCUUCGGAUGCAGAGGCGGCAGCCUUCGGUGGUGCGAUAGCGCCAACGUUCUCAACUAUGACACGCAAAACGCGUGCUCCGUUGAAUGGAGUUUAUCAUG	-1.46
GGAUCUUCUCGAUCUAACAAAAAAGACAGAUCUGCCACAAAGCUUGAGAGCAUCUUCGGGUGCAGAGGCGGCAGCCUUCGGUGGCGCGAUACCGCCAACGUUCUCAACUAUGACAGGCAAGACGCGUGCUCCGUUGAAUGGAGUUUAUCAUG	≤ -4.2
GGAUCUUCUCGAUCUAACAAAAAAGACAAAUCUGCCACAUAGCUUGAGACCGUCUUCGGAUGCAGAGGCGGCAGCCUUCGGUGGAGCGACAGCGCCUACGUUCUCAACUAUGACACGCAAAACGCGUGCUCCGUUGAAUGGAGUUUAUCAUG	≤ -4.2
GGAUCUUCUCGAUCUAACAAAAAAGACAAAUCUGCCACAAAGCUUGAGAACAUCUUCGGAUGCCGAGGCGGCAGCCUUCGGUGGCGCGAUAGCGGCAACGUUCUCAACUAUGAUACGCAAAACGCGUGCUCCGUUGAAUGGAGUUUAUCAUG	≤ -4.2
GGAUCUUCUCGAUCUAACAAAAAAGACAAAUCUGACACAAAGCUUGAGAGCAUCUUCGGAUGCAGAGGCGGCAGCCUUCGGUGGCGUGAUAGCGCCAACGUUCUCAACUAUGACACGCAAAACGCGUGCUCCGUUGAAUGGAGUUUAUCAUG	-4.03
GGAUCUUCUCGAUCUAACAAAAAAGACAAAACUGCCACAAAGCUUGAGAGCAUCUUCGCAUGCAGAGGCGGCAGUCUUCGGUGGCGCGAUUGCGCCAACGUUCUCAACGAUAACACGCAAAACGCGUGCUCCGUUGAAUGGAGUUUAUCAUG	≤ -4.2
GGAUCUUCUCGAUCUAACAAAAAAGUCAAAUCUGCCACAAAGCUUGAGAGCAUCUUCGGAUGCAGAGGCGGCAGCCUUCGGUGGCGCGAUAGCGCCAACGUUCCCAACUAUGACACGCAAAACGCCUGCUCCGUUGAAUGGAGUUAAUCAUG	-2.67
GGAUCUUCUCGAUCUAACAAAAAAGACAAAUCUGCCACAAAGCUUGAGAGCAUCUUCGGAUGCAGAGGCGUCAGCCUUCGGUGGCGCGUUAGCGCCAACGUUCUCAACUAUGACACGCAAAACGCGUGCUCCGUUGAAUGGAGUUUAUCAUG	-2.83
GGACCUUCUCGAUCUAACAAAAAAGACAAAUCUGCCACAAAGCUUGAUCGCAUCUUCGGAUGCAGAGACGGCAGCCUUGGGUGGCGCGAUAGCGCCAACGUUCUAAACUAUGACACGCAAAACGCGUGCUCCGUUGAAUGGAGUUUAUCAUG	≤ -4.2
GGAUCUUCUCGAUCUAACAAAAAAGACAAAUCUGCCACAAAGCUUGAGAGCAUCUUCGGAUGCAGAGGCGGCAGCCUUCGGUGGCGCGAUAGCGCCAACGUUCUCAACUAUGACACGCAAAACGCGUGCUCCGUGGUAUGGAGUUUAUCAUG	-4.04
GGAUCUUCUCGAUCUAACAAAAAAGACAAAUCUGCCACAUAGCUUGAGAGCAUCUUCGGAUGCAGAGGCGGCAGCCUUCGGUGGCGCGAUUGCGCCAACGUACCCAACUAUGACACGCAAAACGCGUGCUCCGUUGAAAGGAGUUUAUCAUG	≤ -4.2
